# Patent US20180155451A1 (published 2018)
# Positions count from the first letter of the chain named. Names may count otherwise. Where two headings read alike, the source gives them in different places.
# T1: FcgRIIb (human, UniProt P31994 43-217)
# T1 construct: extracellular domain; Expressed in FreeStyle293 cells and purified; used as analyte in Biacore; also called FcγRIIb; CD32B; not shown: His tag attached to the C terminus
# T1 sequence (looked up): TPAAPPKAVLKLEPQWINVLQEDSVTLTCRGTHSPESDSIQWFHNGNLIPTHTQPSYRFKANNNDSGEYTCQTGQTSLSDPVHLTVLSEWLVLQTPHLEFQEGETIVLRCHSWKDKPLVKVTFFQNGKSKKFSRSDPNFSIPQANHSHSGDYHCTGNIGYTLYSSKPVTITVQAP
# T2: FcgRIIa R (human, UniProt P12318 34-217)
# T2 construct: extracellular domain; also called FcγRIIa R; FcγRIIa type R; not shown: His tag attached to the C terminus
# T2 sequence (looked up): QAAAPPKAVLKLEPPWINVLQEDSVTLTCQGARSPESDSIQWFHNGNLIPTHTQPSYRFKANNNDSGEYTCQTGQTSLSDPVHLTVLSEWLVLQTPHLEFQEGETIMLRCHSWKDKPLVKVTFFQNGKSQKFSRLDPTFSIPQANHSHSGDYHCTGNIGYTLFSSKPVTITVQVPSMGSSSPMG
# T3: FcgRIIa H (human, UniProt P12318 34-217)
# T3 construct: extracellular domain; also called FcγRIIa H; FcγRIIa type H; not shown: His tag attached to the C terminus
# T3 sequence (looked up): T2 sequence (looked up) with R134H
# T4: FcgRIIaR (human, UniProt P12318 34-217)
# T4 construct: extracellular domain; R131 allotype; also called FcγRIIa R; FcgRIIa type R; not shown: C-terminal His tag
# T4 sequence (looked up): T2 sequence (looked up)
# T5: FcgRIIb (human, UniProt P31994 43-217)
# T5 construct: extracellular domain; also called FcγRIIb; CD32B; not shown: C-terminal His tag
# T5 sequence (looked up): T1 sequence (looked up)
# T6: FcgRIIaH (human, UniProt P12318 34-217)
# T6 construct: extracellular domain; H131 allotype; also called FcγRIIa H; FcgRIIa type H; not shown: C-terminal His tag
# T6 sequence (looked up): T2 sequence (looked up) with R134H
# B1: H240-G1d/L73-k0 (antibody, human IgG1, kappa)
# heavy: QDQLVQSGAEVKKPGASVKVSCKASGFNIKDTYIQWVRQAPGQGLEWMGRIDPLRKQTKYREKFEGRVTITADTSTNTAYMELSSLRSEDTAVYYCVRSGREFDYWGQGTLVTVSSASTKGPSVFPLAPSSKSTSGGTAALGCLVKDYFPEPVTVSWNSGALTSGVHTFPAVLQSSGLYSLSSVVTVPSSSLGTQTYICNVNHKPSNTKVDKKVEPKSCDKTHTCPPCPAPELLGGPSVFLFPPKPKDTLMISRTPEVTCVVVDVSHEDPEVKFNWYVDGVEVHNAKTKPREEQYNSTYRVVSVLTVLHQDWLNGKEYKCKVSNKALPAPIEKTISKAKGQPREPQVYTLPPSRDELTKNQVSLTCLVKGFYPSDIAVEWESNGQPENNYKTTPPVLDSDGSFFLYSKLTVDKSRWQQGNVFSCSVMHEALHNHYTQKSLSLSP
# light: DIQMTQSPSSLSASVGDRVTITCRASQDIHKYIAWYQQKPGQAPRLLIQYTSTLQPGVPSRFSGSGSGTDYTFTISSLQPEDIATYYCLQYEQLRTFGGGTKVEIKRTVAAPSVFIFPPSDEQLKSGTASVVCLLNNFYPREAKVQWKVDNALQSGNSQESVTEQDSKDSTYSLSSTLTLSKADYEKHKVYACEVTHQGLSSPVTKSFNRGEC
# notes: Anti-EREG native IgG1 (G1d constant region lacks the C-terminal Gly and Lys); also called native IgG1
# B2: H240-A5E/H240-B3E/L73-k0 (antibody, human IgG1, kappa)
# heavy 1: not shown
# heavy 2: not shown
# light: B1 light
# notes: Anti-EREG IgG1 control: H240-G1dE with D356K/H435R in one H chain and K439E in the other, no FcgR-related alterations
# B3: H240-Kn120/H240-Hl085/L73-k0 (antibody, human IgG1, kappa)
# heavy 1: QDQLVQSGAEVKKPGASVKVSCKASGFNIKDTYIQWVRQAPGQGLEWMGRIDPLRKQTKYREKFEGRVTITADTSTNTAYMELSSLRSEDTAVYYCVRSGREFDYWGQGTLVTVSSASTKGPSVFPLAPSSKSTSGGTAALGCLVKDYFPEPVTVSWNSGALTSGVHTFPAVLQSSGLYSLSSVVTVPSSSLGTQTYICNVNHKPSNTKVDKKVEPKSCDKTHTCPPCPAPEYYWGPMVFLFPPKPKDTLMISRTPEVTCVVVDVSDEDPEVKFNWYVDGVEVHNAKTKPREEQYNATYRVVSVLTVLHQDWLNGKEYKCKVSNKDLPAPIEKTISKAKGQPREPQVCTLPPSRDELTKNQVSLWCLVKGFYPSDIAVEWESNGQPENNYKTTPPVLDSDGSFFLYSKLTVDKSRWQQGNVFSCSVMHEALHNHYTQKSLSLSP
# heavy 2: QDQLVQSGAEVKKPGASVKVSCKASGFNIKDTYIQWVRQAPGQGLEWMGRIDPLRKQTKYREKFEGRVTITADTSTNTAYMELSSLRSEDTAVYYCVRSGREFDYWGQGTLVTVSSASTKGPSVFPLAPSSKSTSGGTAALGCLVKDYFPEPVTVSWNSGALTSGVHTFPAVLQSSGLYSLSSVVTVPSSSLGTQTYICNVNHKPSNTKVDKKVEPKSCDKTHTCPPCPAPELLVGPSVFLFPPKPKDTLMISRTPEVTCVVVDVSHEEPEVKFNWYVDGVEVHNAKTKPREEQYNSTYRVVSVLTVLHQDWLNGKEYKCKVSNDALPKPIEETISKAKGQPREPQVYTLPPSRCELTKNQVSLSCAVKGFYPSDIAVEWESNGQPENNYKTTPPVLDSDGSFFLVSKLTVDKSRWQQGNVFSCSVMHEALHNHYTQKSLSLSP
# light: B1 light
# notes: Heterodimerized anti-epiregulin antibody; G236V in the Hl068 chain; also called H240-Kn120/H240-HI085/L73-k0
# B4: H240-Kn120/H240-Hl086/L73-k0 (antibody, human IgG1, kappa)
# heavy 1: B3 heavy 1
# heavy 2: B3 heavy 2 with V235I
# light: B1 light
# notes: Heterodimerized anti-epiregulin antibody; G236I in the Hl068 chain; also called H240-Kn120/H240-HI086/L73-k0
# Assays:
# FcgRIIIa F [1] = biological target: T7, FcgRIIIa F (human, UniProt P08637 17-208); assay: SPR (Biacore), antibody captured on chip, FcgR extracellular domain as analyte
# T7 construct: extracellular domain; also called FcγRIIIa F; not shown: His tag attached to the C terminus
# FcgRIIb [2] = biological target: T1, FcgRIIb; assay: as above
# FcgRIIIa V [3] = biological target: T8, FcgRIIIa V (human, UniProt P08637 17-208); assay: as above
# T8 construct: extracellular domain; also called FcγRIIIa V; not shown: His tag attached to the C terminus
# FcgRIa [4] = biological target: T9, FcgRIa (human, UniProt P12314 16-292); assay: as above
# T9 construct: extracellular domain; Expressed in FreeStyle293 cells and purified; used as analyte in Biacore; also called FcγRIa; FcγRI; not shown: His tag attached to the C terminus
# T9 sequence (P12314 16-292): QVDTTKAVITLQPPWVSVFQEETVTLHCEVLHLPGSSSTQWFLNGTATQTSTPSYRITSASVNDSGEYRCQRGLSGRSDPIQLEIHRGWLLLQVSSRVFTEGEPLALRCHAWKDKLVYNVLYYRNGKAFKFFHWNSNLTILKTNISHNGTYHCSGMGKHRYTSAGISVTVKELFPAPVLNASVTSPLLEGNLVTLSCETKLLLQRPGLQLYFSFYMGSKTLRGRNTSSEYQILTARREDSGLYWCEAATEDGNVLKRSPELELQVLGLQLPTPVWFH
# FcgRIIa R [5] = biological target: T2, FcgRIIa R; assay: as above
# FcgRIIa H [6] = biological target: T3, FcgRIIa H; assay: as above
# FcgRIIIa F [7] = biological target: T7, FcgRIIIa F; assay: as above; remark: listed apart in the source
# Procedure: (§1) Analysis of interaction between obj ective antibody and the FcγR was carried out using Biacore T100 (GE Healthcare), Biacore T200, Biacore A100, and Biacore 4000. HBS-EP+ (GE Healthcare) was used as the running buffer, and the measurement temperature was set to 25° C. Chips produced by immobilizing the antigen peptide by the amine coupling method to a Series S sensor Chip CM5 (GE Healthcare), chips produced by allowing preliminarily biotinylated antigen peptides to interact with and immobilize onto a Series S Sensor Chip SA (certified) (GE Healthcare), chips produced by immobilizing Protein L (ACTIGEN, BioVision) to Series S Sencor Chip CM5 (GE Healthcare), or chips produced by immobilizing Protein A/G (Thermo Scientific) to Series S Sencor Chip CM5 (GE Healthcare) were used. Antibodies of interest were captured onto these chips, and allowed to interact to each FcγR diluted with running buffer. To regenerate and repeatedly use the chip, the antibodies captured onto the chip were washed off by reacting 10 mM glycine-HCl, pH 1.5.
# FcgRIIb [8] = biological target: T1, FcgRIIb; assay: as above; remark: listed apart in the source
# Procedure: as §1
# FcgRIIIa V [9] = biological target: T8, FcgRIIIa V; assay: as above; remark: listed apart in the source
# Procedure: as §1
# FcgRIa [10] = biological target: T9, FcgRIa; assay: as above; remark: listed apart in the source
# Procedure: as §1
# FcgRIIa R [11] = biological target: T2, FcgRIIa R; assay: as above; remark: listed apart in the source
# Procedure: as §1
# FcgRIIa H [12] = biological target: T3, FcgRIIa H; assay: as above; remark: listed apart in the source
# Procedure: as §1
# FcgRIIaR [13] = biological target: T4, FcgRIIaR; assay: SPR (Biacore), antibody captured on chip, FcgR as analyte
# Procedure: (§2) The variants described above were assessed for their binding to FcgR according to the method described in Reference Example 8.
# as §1
# FcgRIIb [14] = biological target: T5, FcgRIIb; assay: as above
# Procedure: as §2, §1
# FcgRIIIaV [15] = biological target: T10, FcgRIIIaV (human, UniProt P08637 17-208); assay: as above
# T10 construct: extracellular domain; V158 allotype; also called FcγRIIIa V; not shown: C-terminal His tag
# Procedure: as §2, §1
# FcgRIa [16] = biological target: T11, FcgRIa (human, UniProt P12314 16-292); assay: as above
# T11 construct: extracellular domain; also called FcγRIa; FcγRI; not shown: C-terminal His tag
# Procedure: as §2, §1
# T11 sequence (P12314 16-292): as above
# FcgRIIIaF [17] = biological target: T12, FcgRIIIaF (human, UniProt P08637 17-208); assay: as above
# T12 construct: extracellular domain; F158 allotype; also called FcγRIIIa F; not shown: C-terminal His tag
# Procedure: as §2, §1
# FcgRIIaH [18] = biological target: T6, FcgRIIaH; assay: as above
# Procedure: as §2, §1
# FcgRIIaR [19] = biological target: T4, FcgRIIaR; assay: SPR (Biacore); KD of H240-Kn120/H240-Hl068/L73-k0 divided by KD of the sample
# Procedure: as §2, §1
# FcgRIIb [20] = biological target: T5, FcgRIIb; assay: as above
# Procedure: as §2, §1
# FcgRIIIaV [21] = biological target: T10, FcgRIIIaV; assay: as above
# Procedure: as §2, §1
# FcgRIIIaF [22] = biological target: T12, FcgRIIIaF; assay: as above
# Procedure: as §2, §1
# FcgRIIaH [23] = biological target: T6, FcgRIIaH; assay: as above
# Procedure: as §2, §1
# T7 sequence (P08637 17-208): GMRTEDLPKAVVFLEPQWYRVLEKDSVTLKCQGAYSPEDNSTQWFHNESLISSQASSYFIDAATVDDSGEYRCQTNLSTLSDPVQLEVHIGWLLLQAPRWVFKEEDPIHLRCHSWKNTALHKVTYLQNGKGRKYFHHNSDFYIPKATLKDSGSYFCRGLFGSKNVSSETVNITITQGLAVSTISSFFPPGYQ
# T12 sequence (P08637 17-208): as above
# T10 sequence (P08637 17-208 F176V limits assumed): as the sequence (P08637 17-208) above, with F160V counted along it
# T8 sequence (P08637 17-208 F176V limits assumed): as the sequence (P08637 17-208) above, with F160V counted along it
Kd (FcgRIIIa F [7]),Kd (FcgRIIb [8]),Kd (FcgRIIIa V [9]),Kd (FcgRIa [10]),Kd (FcgRIIa R [11]),Kd (FcgRIIa H [12]),Kd (FcgRIIaR [13]),Kd (FcgRIIb [14]),Kd (FcgRIIIaV [15]),Kd (FcgRIa [16]),Kd (FcgRIIIaF [17]),Kd (FcgRIIaH [18]),Relative KD (FcgRIIaR [19]),Relative KD (FcgRIIb [20]),Relative KD (FcgRIIIaV [21]),Relative KD (FcgRIIIaF [22]),Relative KD (FcgRIIaH [23]),also measured,Binder
1400 nM,6100 nM,310 nM,0.23 nM,880 nM,660 nM,–,–,–,–,–,–,–,–,–,–,–,Kd (FcgRIIIa F [1]): 1400 nM; Kd (FcgRIIb [2]): 6000 nM; Kd (FcgRIIIa V [3]): 310 nM; Kd (FcgRIa [4]): 0.23 nM; Kd (FcgRIIa R [5]): 880 nM; Kd (FcgRIIa H [6]): 660 nM,B1
1600 nM,4300 nM,330 nM,0.61 nM,940 nM,910 nM,–,–,–,–,–,–,–,–,–,–,–,–,B2
–,–,–,–,–,–,19 nM,390 nM,6.2 nM,87 nM,23 nM,46 nM,1.1,0.4,0.1,0.1,0.9,–,B3
–,–,–,–,–,–,22 nM,480 nM,14 nM,1.4 nM,33 nM,53 nM,0.9,0.3,0,0.1,0.8,–,B4
